The target of assay [1] is AcrIIA1 selenomethionyl L52M mutant (Listeria monocytogenes prophages). Put plainly: crystal structure.
Assay [2] addresses AcrIIA1 (native wild type) (Listeria monocytogenes prophages). Put plainly: SEC. (In general: Size exclusion chromatography separates by hydrodynamic size, large species first.)
For assay [3] the target is unchanged. In words: crystal structure.

Regarding “AcrIIA1 selenomethionyl L52M mutant (natural protein)”, the stoichiometry N in assay [1] was 2.

Turning to “AcrIIA1 (native wild type) (natural protein)”, the stoichiometry N in assay [2] and in assay [3] was 2 each time.

A word on the stoichiometry N: it is a count of units in the complex or per binding partner.
